Measured values: patent US10273464B2, “Methods and isolated protein compositions for isoprenoid diphosphate synthesis” (The Salk Institute for Biological Studies, priority 2009, dated 2019)
Where a chain is given by its changes, count along the chain named. In names and notes the source's numbering stands. Entries after “also recorded” stand apart in the source; their conditions may differ. Read-outs that look alike come from different tables or passages of the source.

Assays:
[1] = read-out: Km value for ATP; cited from earlier work
[2] = read-out: Km value for UMP; cited from earlier work
[3] = pyruvate kinase-lactate dehydrogenase coupled assay, Km for ATP; type: biochemical; details: 25° C.
Description: All specific activity and kinetic measurements were performed using the pyruvate kinase-lactate dehydrogenase coupled assay with reference to a previously established protocol (Lindsley, 2001, Methods Mol. Biol. 95:57-64.). […] The reaction was initiated by the addition of IPK (0.15 ug) and was followed by observing the depletion of NADH at 340 nm over time, expressed as Δ(AU340)/Δt, which was converted to Δ(ADP)/Δt. These values were then plotted against substrate concentration in GraphPad Prism® (Version 5.01 for Windows) to compute the kinetic parameters kcat and Km using the “nonlinear regression enzyme kinetic analysis” option.

[4] = pyruvate kinase-lactate dehydrogenase coupled assay, IP as variable substrate; type: biochemical; details: 25° C.; for kinase activity (rate of IP turnover): relevant concentrations of IP and enzyme
Description: All specific activity and kinetic measurements were performed using the pyruvate kinase-lactate dehydrogenase coupled assay with reference to a previously established protocol (Lindsley, 2001, Methods Mol. Biol. 95:57-64.). The reaction includes the following components in a 200 ul volume: 7 U pyruvate kinase, 10 U lactate dehydrogenase, 2 mM phosphoenolpyruvate, 0.16 mM NADH, 50 mM TRIS HCl pH 8.0, 100 mM KCl, 8 mM MgCl2, 4 mM ATP, and variable concentrations of IP (purchased from Larodan Fine Chemicals). The reaction was initiated by the addition of IPK (0.15 ug) and was followed by observing the depletion of NADH at 340 nm over time, expressed as Δ(AU340)/Δt, which was converted to Δ(ADP)/Δt. These values were then plotted against substrate concentration in GraphPad Prism® (Version 5.01 for Windows) to compute the kinetic parameters kcat and Km using the “nonlinear regression enzyme kinetic analysis” option.
From the results discussed above, it is evident that His60 from IPK plays an important role in both substrate and product binding. This is accomplished through a hydrogen bonding interaction between the Nε2 atom of His60 and a non-bridging O atom from the terminal phosphate group on either the substrate (IP) or the product (IPP). From all crystal structure data, it is apparent that the Nε2 group of His60 (and not the Nδ1 group) is relevant for binding and may therefore be reasonably assumed by one skilled in the art to be relevant for IPK-mediated catalysis. To confirm this hypothesis, His60 was mutated to Ala, Asn, and Gln. The Asn and Gln mutations were made based on the rationale that their side chains contain N atoms that are isosteric with the Nδ1 and Nε2 groups on His, respectively.

[5] = coupled IPK / 5-epi-aristolochene synthase (TEAS) vial assay, GC-MS, FP to FPP conversion; type: biochemical; details: 10 μM IPK, 150 μM FP, ATP, Mg, pH 8.0, 20 minutes at 55° C., 5-epi-aristolochene quantified by GC-MS
Description: FIG. 10: Assays of IPK and mutants. The single mutants of IPK, I86A and I146A, and the double mutant I86A/I146A, were tested with the C15-substrate farnesyl monophosphate (FP) using a coupled assay with a terpene cyclase (TEAS). In the first step of the reaction, IPK was incubated with magnesium, ATP, and FP at pH 8.0 for 20 minutes at 55° C. (assuming sufficient time for conversion of FP to FPP). In the second step of the reaction, a small sample of the first reaction was added to a glass vial containing magnesium and a sesquiterpene cyclase known as tobacco 5-epi-aristolochene synthase (TEAS), and this reaction was incubated overnight at 25° C. Assuming complete conversion of FPP to 5-epi-aristolochene, the reaction was extracted with ethyl acetate and the amount of 5-epi-aristolochene was quantified by GC-MS analysis.
FIGS. 11A-11B: Farnesyl phosphate (FP) phosphorylation by IPK chain length mutants. FIG. 11A: FIG. 11A depicts the coupled IPK-sesquiterpene synthase reaction used to test for FP transphosphorylation. FIG. 11B: FIG. 11B depicts comparative bar graph showing several IPK mutants qualitatively tested for their ability to convert FP to FPP, expressed as a percentage of maximal production of 5-epi-aristolocene produced from IPK-generated FPP using wild-type IPK and identical concentrations of wild-type tobacco 5-epi-aristolochene synthase incubated for equivalent lengths of time.
IPK mutants (at a final concentration of 10 μM) were incubated in a 50 μl reaction with 150 μM farnesyl monophosphate (FP), 7 mM MgCl2, 4 mM ATP, and 50 mM TRIS.HCl pH 8.0 for 20 minutes at 55° C. 10 μl of this reaction was then added to a 500 μl reaction containing 45 ug of the terpene cyclase 5-epi-aristolochene synthase (TEAS) and 10 mM MgCl2 in a 3-component buffer system (25 mM MES, 50 mM TRIS.HCl, 25 mM CAPS) at pH 7.0. A method known as the “vial assay” (O'Maille et al., 2004, Anal. Biochem. 335:210-217) was employed by overlaying this aqueous layer with 500 μl of ethyl acetate, incubating overnight at 25° C., and vortexing to extract the terpene product into the organic layer prior to quantitative GC-MS analysis. Both negative and positive control reactions were conducted as follows. For the negative control, no IPK was added to the first reaction. For the positive control, […] of FPP (equivalent to the amount that would be present assuming complete FP to FPP turnover) was added to the TEAS reaction.
Similar studies were conducted using FPP modeled into the active site of IPK. The reaction of IPK on FP to form FPP is depicted in FIG. 10. The I146A I86A single-residue mutations, and the […] double mutation were tested with the C15-substrate farnesyl monophosphate (FP) using a coupled assay with a terpene cyclase (TEAS). In the first step of the reaction, IPK was incubated with magnesium, ATP, and FP at pH 8.0 for 20 minutes at 55° C., which was judged as sufficient time for conversion of FP to FPP. In the second step of the reaction, a small sample of the first reaction was added to a glass vial containing magnesium and a sesquiterpene cyclase known as tobacco 5-epi-aristolochene synthase (TEAS), and this reaction was incubated overnight at 25° C. Assuming complete conversion of FPP to 5-epi-aristolochene, the reaction was extracted with ethyl acetate and the amount of 5-epi-aristolochene was quantitated by GC-MS analysis.

[6] = measured in one instance (other than Table 4)

B1: UMPK from Sulfolobus solfataricus: uridine monophosphate kinase from Sulfolobus solfataricus, literature comparison (Jensen et al., 2007) (protein, UniProt Q97ZE2 1-227, looked up)
Uridylate kinase: MMNIILKISGKFFDEDNVDNLIVLRQSIKELADNGFRVGIVTGGGSTARRYIKLAREIGIGEAYLDLLGIWASRLNAYLVMFSLQDLAYMHVPQSLEEFIQDWSHGKVVVTGGFQPGQSTAAVAALVAEASSSKTLVVATNVDGVYEKDPRIYADVKLIPHLTTQDLRKILEGSQSVQAGTYELLDPLAIKIVERSKIRVIVMNYRKLNRIIDILKGEEVSSIIEPV
- Km [1]: 81 µM
- Km [2]: 14 µM

B2: IPK-Mmaripaludis: isopentenyl phosphate kinase homolog from Methanococcus maripaludis, SEQ ID NO:8 (protein, listed as Methanococcus maripaludis)
chain: MFAILKLGGSILCDKNVPYSINWENLENIAIEIKEAIEYYSSKNEDFKLIIVHGGGSFGHPVAKKYLKNEKFEDMGKGYWEIQKAMRKFNNIVIEELQNFEPAVSIQASSFITFNHKSNLHFDTNAIEKMLDKGLIPVIHGDIVIDEKTDNFKIFSGDHALPFLSKKLNPDLSLHASDVDGVWDSEFKIIENINSKNIEDVLKSLKPSNKEDVTGGMHLKVMECYNLGIETIIFNGNKKRNIYNALLKNVKGTLIN
- Km [3, 6]: 96 ± 6 µM
- Km [4]: 21.4 ± 4.2 µM
- kcat [4]: 13.1 ± 0.5 s⁻¹
- Km [4, 6]: 16.1 µM

B3: IPK-Mjannaschii H60A: M. jannaschii IPK with His60 mutated to Ala (protein, UniProt Q60352 1-260, looked up, variant H60A)
Isopentenyl phosphate kinase: MLTILKLGGSILSDKNVPYSIKWDNLERIAMEIKNALDYYKNQNKEIKLILVHGGGAFGAPVAKKYLKIEDGKKIFINMEKGFWEIQRAMRRFNNIIIDTLQSYDIPAVSIQPSSFVVFGDKLIFDTSAIKEMLKRNLVPVIHGDIVIDDKNGYRIISGDDIVPYLANELKADLILYATDVDGVLIDNKPIKRIDKNNIYKILNYLSGSNSIDVTGGMKYKIDMIRKNKCRGFVFNGNKANNIYKALLGEVEGTEIDFSE
- kinase activity (rate of IP turnover) [4]: immeasurable; also recorded: no measurable activity

B4: IPK-Mjannaschii H60N: M. jannaschii IPK with His60 mutated to Asn (protein, UniProt Q60352 1-260, looked up, variant H60N)
Isopentenyl phosphate kinase: B3 Isopentenyl phosphate kinase with A60N
- kinase activity (rate of IP turnover) [4]: immeasurable; also recorded: no measurable activity

B5: I146V: IPK mutant, residue 146 Ile to Val (protein, listed as Methanocaldococcus jannaschii)
chain: B3 Isopentenyl phosphate kinase with A60H, I146V, D223E
- conversion (phosphorylation) of FP to FPP [5]: decreased activity

B6: IPK-Mjannaschii H60Q: M. jannaschii IPK with His60 mutated to Gln (protein, UniProt Q60352 1-260, looked up, variant H60Q)
Isopentenyl phosphate kinase: B3 Isopentenyl phosphate kinase with A60Q
- Km [3]: 559 µM
- Km [4]: 34.5 µM
- kcat [4]: 0.040 ± 0.002 s⁻¹
- kinase activity (rate of IP turnover) [4]: able to turn over a measurable amount of IP
- Km for IP, fold larger than wild type ([4]; versus wild type IPK): 8 fold
- kcat, fold slower than wild type ([4]; versus wild type IPK): ~40 fold
- kcat ([4]; listed as H60Q): 0.04 s⁻¹

B7: I146A: IPK single mutant, residue 146 Ile to Ala (protein, listed as Methanocaldococcus jannaschii)
chain: B3 Isopentenyl phosphate kinase with A60H, I146A, D223E
- conversion (phosphorylation) of FP to FPP [5]: significant percentage of FP; also recorded: significant percentage of substrate

B8: I156V: IPK mutant, residue 156 Ile to Val (protein, listed as Methanocaldococcus jannaschii)
chain: B3 Isopentenyl phosphate kinase with A60H, I156V, D223E
- conversion (phosphorylation) of FP to FPP [5]: decreased activity

B9: I86A: IPK single mutant, residue 86 Ile to Ala (protein, listed as Methanocaldococcus jannaschii)
chain: B3 Isopentenyl phosphate kinase with A60H, I86A, D223E
- conversion (phosphorylation) of FP to FPP [5]: significant percentage of FP; also recorded: significant percentage of substrate

B10: I86A/I146A: IPK double mutant I86A and I146A (protein)
chain: B3 Isopentenyl phosphate kinase with A60H, I86A, I146A, D223E
- conversion (phosphorylation) of FP to FPP [5]: significant percentage of substrate
- conversion (phosphorylation) of FP to FPP ([5]; listed as I146A/I146A): significant percentage of FP

B11: F83A/I86A/I156A: IPK triple mutant F83A, I86A, I156A (protein)
chain: B3 Isopentenyl phosphate kinase with A60H, F83A, I86A, I156A, D223E
- conversion (phosphorylation) of FP to FPP [5]: greatest turnover

B12: IPK-Mjannaschii: isopentenyl phosphate kinase from Methanocaldococcus jannaschii, SEQ ID NO:1, wild type (protein, listed as Methanocaldococcus jannaschii)
chain: B3 Isopentenyl phosphate kinase with A60H, D223E
- Km [3]: 198 µM
- Km [4]: 4.3 ± 0.6 µM
- kcat [4]: 1.46 ± 0.03 s⁻¹
- conversion (phosphorylation) of FP to FPP [5]: significantly less phosphorylation
